Source: the supplement of paper PMC9170038

Test system: MS2 coat protein
Experiment: apparent KD of MS2 coat protein; designed switch direction (-1 OFF switch, 1 ON switch): -1; higher = weaker reporter binding
Summary of the method: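 Designed RNA switches sharing common flanks were transcribed on Illumina chips by stalled E. coli RNA polymerase. They were titrated with SNAP-549-labelled MS2 coat protein, from 0.7 or 1.5 nM doubling to 3 µM, in Tris-HCl pH 7.5 buffer with KCl, MgCl2, BSA, DTT, tRNA and Tween-20. Titrations ran without input, with 200 uM small-molecule ligand, or with an oligonucleotide input. The apparent KD of each design is the median over its clusters, after curve-fitting of normalised cluster fluorescence.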

[1] = input ligand: microRNA oligo, concentration not stated
[2] = Eterna round: R95, input ligand: FMN 200 uM
[3] = Eterna round: R95, input ligand: microRNA oligo, concentration not stated
[4] = Eterna round: R95, input ligand: none

Sequence | apparent KD of MS2 coat protein (input ligand: FMN 200 uM) [nM] | apparent KD of MS2 coat protein [1] [nM] | apparent KD of MS2 coat protein (input ligand: none) [nM] | apparent KD of MS2 coat protein [2] [nM] | apparent KD of MS2 coat protein [3] [nM] | apparent KD of MS2 coat protein [4] [nM]
UCAAGCUUUAAGCGUGUGAACAUGAGGAUCACCCAUGUAUUUUAGGUAAUAAGUUCAAUUAUGUAUUCUCGUCUUAU [JR_SWV3TOV1_Sub095] (Eterna round: R96, puzzle: Sensor v3, turn-off variant 1) | 61.5 | 45.4 | 65.4 | – | – | –
UUUAAUUUAAUUAAGAUCACAUGAGGAUCACCCAUGUAUAUAUAGGAUAUCAGCUCGUUUAGAGCUGAGAAGGAUAUAUACAUA [ExNG3/4-A2] (Eterna round: R96, puzzle: Exclusion NG 3) | 433 | 40.1 | 58.2 | – | – | –
UGUACUAACACGAUAGUGUUAGUACUAUAAGCUUGUGUUACAUGAGGAUCACCCAUGUCCUCAUAAGCUCGUCUUGA [Mat - Sensor v3 - Turn-off var 2 - D93] (puzzle: Sensor v3, turn-off variant 2) | – | – | – | 32.3 | 712 | 31.2
AUUUGCACGCUGCGGUCCUACAUGAGGAUCACCCAUGUGGUCUGGUGGCGUGGGUCGCCGGACUUGGCUCGUCUUGU [salish99_S_TOV1_R5_033] (Eterna round: R97, puzzle: Sensor, turn-off variant 1) | 18.7 | – | 19.5 | – | – | –
UGUUGUUGAUAGGAUAUACUUGUAGGAGUUGUAGUAGAAGGAUCUACAUGAGGAUCACCCAUGUAGGAGUGAGU [JR_E6_Sub004] (puzzle: Exclusion 6) | – | – | – | – | 15.6 | –
UUUUAGUCAGGAUAUACAUGAGGAUCACCCAUGUAAACUUUUAGUUUAAUUUGAAUGUGUAGAAGGGACAUUUU [Ex3 #44] (Eterna round: R97, puzzle: Exclusion 3) | 34.3 | – | 25.4 | – | – | –
GUGGUAGGUUUUUCGAGUAACAUGAGGAUCACCCAUGUAUUAGUUGGAUGUAUCAAGCUUUUUGCUCGACUUAUAAA [JR_SV3TOV1_Sub043] (puzzle: Sensor v3, turn-off variant 1) | – | – | – | 249 | 40.6 | 288
AUAAUGUCAGGAUAUCAGUCGACUAGCCUCGGCUAGUCGACUGAGAAGGGACAUGAGGAUCACCCAUGUGUUUC [E4/14-A2] (Eterna round: R97, puzzle: Exclusion 4) | 811 | – | 569 | – | – | –
UUGAAGUCAUCAGGAUAUAGUAUUAAAGACAUUUAUUUUUUCAUACAUGAGGAUCACCCAUGUCGCUAGAAGGGAUUAUAGAUU [JR_ExcNG2_Sub079] (Eterna round: R96, puzzle: Exclusion NG 2) | – | 38.4 | – | – | – | –
AGUAACAGAGGAUAUACUGUUUUAUGUAUUUAUUAUUUUAAACAUGAGGAUCACCCAUGUAGAAGGCUGAAUAA [JMF 81] (puzzle: Exclusion 2) | – | – | – | – | 17.5 | –
AAAGGAUGCCUAGGAUAUUGACGAAGAAAGGAUUAAGAAGGAGGAAAUAUAUGAGGGAUCCACAUGAGGAUCACCCAUGUACAC [Beveinveor] (Eterna round: R96, puzzle: Exclusion NG 1) | 538 | 458 | 270 | – | – | –
ACCGUGUGAGGAUAUCCGUAGCUGAGGCACCUCGCAAACAUGGAGAAGGCACAUGAGGAUCACCCAUGUGAACC [Eternabot (Original) Solution 27] (Eterna round: R97, puzzle: Exclusion 4) | 47.1 | – | 23.8 | – | – | –
UUCCUCUCUUCUUUGUCUCACAUGAGGAUCACCCAUGUAACAUAGGAUAUGCUUGGUAUUUAUAUGCAGAAGGAUGUUAGUAUU [JR_ExcNG3_Sub083] (Eterna round: R96, puzzle: Exclusion NG 3) | 60.8 | 19 | 25.7 | – | – | –
GCGAAAGCAAACAGGUGAAACAUGAGGAUCACCCAUGUCCUCAUUUGCUCGUCUUAUAAGCUAUGCGAAAGCAUAGC [Sensor 3, v1 - 8] (puzzle: Sensor v3, turn-off variant 1) | – | – | – | 100 | 935 | 109
ACGCGUGGCUAGGAUAUCGAGGAAUCUAGCCAGCGAGAAGGAGCCACAUGAGGAUCACCCAUGUGGUGAUCCUC [jl-ex6-4.65 ViennaUCT mod] (Eterna round: R97, puzzle: Exclusion 6) | 6.76 | – | 3.8 | – | – | –
GGCCGUAAUAAGGAUAUCACUAGCUUCGGCUAGUGAGAAGGUAUUACAUGAGGAUCACCCAUGUGAUUAGGCCA [E6/5-B1] (Eterna round: R97, puzzle: Exclusion 6) | 98.1 | – | 25.2 | – | – | –
CAUAGUAAUUAGGAUAUCUGCCGGCUGAGCCGAGGAGAAGGGAUUACAUGAGGAUCACCCAUGUGGUCCUAGAA [Lebireti] (puzzle: Exclusion 6) | – | – | – | 31.3 | 20.1 | 19.9

Sequence | apparent KD of MS2 coat protein (input ligand: FMN 200 uM) [nM] | apparent KD of MS2 coat protein [1] [nM] | apparent KD of MS2 coat protein (input ligand: none) [nM] | apparent KD of MS2 coat protein [2] [nM] | apparent KD of MS2 coat protein [3] [nM] | apparent KD of MS2 coat protein [4] [nM]
GACAGUCGAGGAUAUACGAUCGUGCUUCGGCACGUAAGAUCACAUGAGGAUCACCCAUGUAGAAGGCGACUGUC [Mod 6 - Jieux - Exclusion 2] (Eterna round: R97, puzzle: Exclusion 2) | 234 | – | 31.7 | – | – | –
ACGCAUUGCCUUUGGUAGUGCGUUACAUGAGGAUCACCCAUGUAGGAUAUGGUAGGCAAAGCUUACCAGAAGGACAUGAUAAUU [Mat - Exclusion NG 3 - Mod of JL - D5] (Eterna round: R96, puzzle: Exclusion NG 3) | – | 41.8 | – | – | – | –
CAUUACUGCAGGCUUUGGGACAUGAGGAUCACCCAUGUUCGUCUUAUUGAUCUAGGUACGCUGACGUACCUAGAUCU [JL-sv1-2.26 Brourd mod] (puzzle: Sensor v3, turn-off variant 1) | – | – | – | 17.6 | 20.8 | 15.1
GUGUAGUCAGGAUAUACAUAGGAAGAGAAGAGAAGAUAAGCACAUGAGGAUCACCCAUGUAGAAGGGACAGUGU [Excluse me!! 3 - Jieux - Exclusion 2] (puzzle: Exclusion 2) | – | – | – | – | 57.4 | –
AGCUGUGGCCGAGGAUAUUACGAACCAUGGAAAACCAUGGAAACUCUACAUGAGGAUCACCCAUGUAAGAAGGCGGUCUCAGCA [Eli eng2 - 024] (Eterna round: R96, puzzle: Exclusion NG 2) | 47.5 | 11.7 | 16.4 | – | – | –
AAGAAACAUGAGGAUCACCCAUGUGAGGAUAUGAGGAAGAAAAGAAAAGAAAGAAGAAUCAGAAGGCACAAAGG [salish99-ex1_r3_049] (puzzle: Exclusion 1) | – | – | – | 56.3 | 36.5 | 43.6
UAAUAACAAGCGAGAUCCUACAUGAGGAUCACCCAUGUGCUCGUCUUAUAAGGUACUGUGACGAAAGUCACGGUACC [Eli 87 + Mat D67] (Eterna round: R97, puzzle: Sensor, turn-off variant 1) | 17.9 | – | 20.1 | – | – | –
UAUAUAUAGUAAGGAUAUGUAUUAAGUUUAUAAACAGAAGGUACUGACAUGAGGAUCACCCAUGUUUUAGUGUGGGCAUGUAGA [JMF's solution 76] (Eterna round: R96, puzzle: Exclusion NG 1) | 122 | 52.6 | 78.6 | – | – | –
CCUUCUCGUGUCAGGAUAUCCACUCAUCGAAAUUAGGAGAAGGGACAUGAGGAUCACCCAUGUAUACAUGCCAG [Cequesar] (puzzle: Brourd's mod of Exclusion 4) | – | – | – | – | 61.7 | –
AUAAUGUGAGGAUAUCAGUCGUACAGCCUCGGCUGUACGACUGAGAAGGCACAUGAGGAUCACCCAUGUGGUCA [E4/5-A2] (Eterna round: R97, puzzle: Exclusion 4) | 156 | – | 590 | – | – | –
AGGUAACAUGAGGAUCACCCAUGUCAGGAUAUCAGGAAGAUUAGAAUAGAGUAGAGGAUGAGAAGGGACUAUAU [Excluse me! 18- Jieux - Exclusion 1] (Eterna round: R96, puzzle: Exclusion 1) | – | 24.7 | – | – | – | –
GUUAAUUGUGACAUGGGUGACAUGAGGAUCACCCAUGUCACAAGCUUUUUGUUCGUCUUAUAAUUAACCCAUGUCAC [Stov1/13-B2] (Eterna round: R97, puzzle: Sensor, turn-off variant 1) | 79.8 | – | 94.8 | – | – | –
AAGUACCGUCACGAUAGUGAUGGUACAACAGGCAAAUGUACAUGAGGAUCACCCAUGUCCUCUUUUGCUCGUCUUGU [Sensor 3 - 35] (puzzle: Sensor v3, turn-off variant 2) | – | – | – | 94.2 | 34 | 114
GACAGUUCGGAGGAUAUCCAGAACUAAGAACAAGGAGAAGGCCGAACAUGAGGAUCACCCAUGUGUGUUCCCAU [Isdiorzaar] (puzzle: Exclusion 6) | – | – | – | 19.4 | 30.7 | 27
UCACGGGACUAAGGAUAUACAUGAACUAUUAUUGUAGAAGGUAGAAUGUUAGCUUAUACACUAAACAUGAGGAUCACCCAUGUA [JR_ExcNG1_Sub095] (Eterna round: R96, puzzle: Exclusion NG 1) | – | 26.9 | – | – | – | –
CAGUACUACAAGCUAUGGGACAUGAGGAUCACCCAUGUUCGUCUUAUUGAUCUAGGUACGCUGACGUACCUAGAUCU [JL-sv1-2.19 Brourd mod] (puzzle: Sensor v3, turn-off variant 1) | – | – | – | 16.9 | 27.8 | 15.9
AUUUAGCGAGGAUAUACCAACGUGAUCUUCGACUGAGCGGCACUUGAGGAUCACCCAAGUAGAAGGCGCACUAU [Onleindian] (Eterna round: R97, puzzle: Exclusion 2) | 346 | – | 207 | – | – | –
